Values belong to the binder of their own block, whether it stands above or below them.
What was measured:
[1] = target: T1, recombinant HMG1 produced in E. coli as calmodulin binding protein (CBP) fusion (human); experiment: cell-based or functional assay
T1 chain: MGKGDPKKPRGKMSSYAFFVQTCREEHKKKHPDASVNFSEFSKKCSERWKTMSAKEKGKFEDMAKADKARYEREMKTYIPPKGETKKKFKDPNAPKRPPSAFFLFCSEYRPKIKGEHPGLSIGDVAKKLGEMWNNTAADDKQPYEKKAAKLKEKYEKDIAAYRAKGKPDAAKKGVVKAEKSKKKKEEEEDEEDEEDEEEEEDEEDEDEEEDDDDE

[2] = target: T1, recombinant HMG1 produced in E. coli as …; experiment: BIAcore 3000; mAb amine-coupled to CM5, HMG1 injected in two-fold dilutions; steady-state model
Description: HMG1 Binding Affinity via BIAcore Analysis: All experiments were performed on a BIAcore 3000 instrument (BIAcore, Inc., Piscataway, N.J.). Briefly, each mAb was immobilized to a CM5 sensor chip using a standard amine coupling chemistry. Separately a reference (control) flow cell was also prepared. Two-fold, serial dilutions of HMG1 in instrument buffer were sequentially injected at a slow flow rate over the individual mAb and reference flow-cell surfaces. Following the binding and dissociation of HMG1, the mAbs surfaces were regenerated with a brief pulse of 1M NaCl-50 mM NaOH. At the end of each experiment, the binding curves were evaluated using a steady-state model available through the BIAevaluation software supplied by BIAcore, Inc. (Piscataway, N.J.).

IC50, inhibition of rHMG1 stimulated IL-6 release from human PBMCs [1]: 1.67 nM
B1: anti-HMG1 antibody S12 (antibody, V domains shown)
VH: EVQLLESGGGLVQPGGSLRLSCAASGFTFSKYIMHWVRQAPGKGLEWVSGIVPSGGLTEYADSVKGRFTISRDNSKNTLYLQMNSLRAEDTATYYCAKEIFGQFDYWGQGTLVTVSS
VL: AQSALTQPPSVSAAPRQRVTISCSGSTSNIGNNAVTWYQYFPGKAPKLLIYSDNQRPSGVPDRFSGSKSGTSASLAITGLQAEDEADYYCQSYDRGLSVVFGGGTKLTVL

IC50, inhibition of rHMG1 stimulated IL-1β release from human PBMCs [1]: 5.03 µg/mL
IC50, inhibition of rHMG1 stimulated IL-6 release from human PBMCs [1]: 0.994 nM
IC50, inhibition of rHMG1 stimulated IL-12 release from human PBMCs [1]: 1.26 µg/mL
IC50, inhibition of rHMG1 stimulated TNF-α release from human PBMCs [1]: 1.35 µg/mL
B2: anti-HMG1 antibody G2 (antibody, V domains shown)
VH: EVQLLESGGGLVQPGGSLRLSCAASGFTFSWYKMQWVRQAPGKGLEWVSGISPSGGSTAYADSVKGRFTISRDNSKNTLYLQMNSLRAEDTAVYYCAKMGLFNTGNSYVDYWGQGTLVTVSS
VL: AQSELTQPPSVSEAPGQRVTISCSGSTSNIGNNAVIWYQQLPGKAPKLLIYYDDLLPSGVSDRFSGSKSGTSGSLAISGLQSEDEADYYCASWDDNLNGPLFGGGTKLTVL

IC50, inhibition of rHMG1 stimulated IL-6 release from human PBMCs [1]: 0.564 nM
Kd [2]: 242 nM
B3: anti-HMG1 antibody G35 (antibody, V domains shown)
VH: EVQLLESGGGLVQPGGSLRLSCAASGFTFSWYKMVWVRQAPGKGLEWVSSIVPSGGITIYADSVKGRFTISRDNSKNTLYLQMNSLRAEDTAVYYCARVQQWLGRPYFDYWGQGTLVTVSS
VL: DIQMTQSPLSLPVTPGEPASISCRSSQSLLHGNGYNYLDWYLQRPGQSPQLLIYSGSNRASGVPDRFSGSGSGTDFTLKISRVEAEDVGVYYCMQSLQSRTFGQGTKVEIK

IC50, inhibition of rHMG1 stimulated IL-1β release from human PBMCs [1]: 0.0678 µg/mL
IC50, inhibition of rHMG1 stimulated IL-6 release from human PBMCs [1]: 0.191 nM
IC50, inhibition of rHMG1 stimulated TNF-α release from human PBMCs [1]: 0.0662 µg/mL
Kd [2]: 205 nM
B4: anti-HMG1 antibody S14 (antibody, V domains shown)
VH: EVQLLESGGGLVQPGGSLRLSCAASGFTFSWYETGWVRQAPGKGLEWVSGISPSGGYTQYADSVKGRFTISRDNSKNTLYLQMNSLRAEDTAVYYCARSGVGATKIFDYWGQGTLVTVSS
VL: DIQMTQSPSSLSASVGDRVTIICRANERINTYLNWYQQKPGKAPKLLISGTSSLESGVPSRFSGSGSGTEFTLSISSLQPEDFASYYCQQSYSSPYTFGQGTNLEIR

IC50, inhibition of HMG1 stimulated NO release from macrophages [1]: 22 µg/mL
IC50, inhibition of rHMG1 stimulated IL-6 release from human PBMCs [1]: 1.06 nM
Kd [2]: 22 nM
B5: anti-HMG1 antibody G16 (antibody, V domains shown)
VH: EVQLLESGGGLVQPGGSLRLSCAASGFTFSWYKMTWVRQAPGKGLEWVSSISPSGGFTSYADSVKGRFTISRDNSKNTLYLQMNSLRAEDTAVYYCARDLDIRHAFDIWGQGTMVTVSS
VL: DIQMTQSPGTLSLSPGESGTLSCRASESVSSRHFAWYQQKPGQAPRLLIYGASSRPTGIPDRFSGSGSGTDFTLTLSRLEPEDFAVYFCQYYGSSPYTFGGGTKVEMK

IC50, inhibition of HMG1 stimulated NO release from macrophages [1]: 20.4 µg/mL
IC50, inhibition of rHMG1 stimulated IL-1β release from human PBMCs [1]: 0.4 µg/mL
IC50, inhibition of rHMG1 stimulated IL-6 release from human PBMCs [1]: 0.652 nM
IC50, inhibition of rHMG1 stimulated TNF-α release from human PBMCs [1]: 0.598 µg/mL
B6: anti-HMG1 antibody G20 (antibody, V domains shown)
VH: EVQLLESGGGLVQPGGSLRLSCAASGFTFSWYDMFWVRQAPGKGLEWVSWISPSGGYTKYADSVKGRFTISRDNSKNTLYLQMNSLRAEDTAMYYCARSGLDYYDSSGYLDAFDIWGQGTMVTVSS
VL: DIQMTQSPSSVSASVGDRVTITCRASQDVSIWLAWYQQKPGKAPKLLIFGASRLQSGVPSRFSGSRSGADFTLTIDSVQPEDFASYYCQQADSFPLTFGGGTKVEIK

IC50, inhibition of rHMG1 stimulated IL-1β release from human PBMCs [1]: 5.91 µg/mL
IC50, inhibition of rHMG1 stimulated IL-6 release from human PBMCs [1]: 1.12 nM
IC50, inhibition of rHMG1 stimulated IL-12 release from human PBMCs [1]: 2.79 µg/mL
IC50, inhibition of rHMG1 stimulated TNF-α release from human PBMCs [1]: 0.796 µg/mL
Kd [2]: 73 nM
B7: anti-HMG1 antibody G12 (antibody, V domains shown)
VH: EVQLLESGGGLVQPGGSLRLSCAASGFTFSYYMMTWVRQAPGKGLEWVSSISPSGGYTIYADSAKGRFTISRDNSKNTLYLQMNSLRAEDTAVYYCARALSTGSFWDYWGQGTLVTVSS
VL: DIQMTQSPGTLSLSPGERATLSCRASESLTSTYVAWYQHKPGQAPRLLIHGGSTRATGIPVRFSGSGSGTDFTLTIATLEPEDFAVYYCQQYGSSPYTFGQGTKLEIK

IC50, inhibition of rHMG1 stimulated IL-6 release from human PBMCs [1]: 0.858 nM
Kd [2]: 67 nM
B8: anti-HMG1 antibody G34 (antibody, V domains shown)
VH: EVQLLESGGGLVQPGGSLRLSCAASGFTFSHYMMGWVRQAPGKGLEWVSRISPSGGGTVYADSVKGRFTISRDNSKNTLYLQMNSLRAEDTAVYYCARGGNWNYISYYYYYLDVWGKGTTVTVSS
VL: DIQMTQSPSSLSASVGDRVAITCRASQSIDTYLNWYQQKPGKAPKLLIYAASKLEDGVPSRFSGSGTGTDFTLTIRSLQPEDFASYFCQQSYSSPGITFGPGTKVEIK

IC50, inhibition of HMG1 stimulated NO release from macrophages [1]: 41.7 µg/mL
IC50, inhibition of rHMG1 stimulated IL-1β release from human PBMCs [1]: 0.0809 µg/mL
IC50, inhibition of rHMG1 stimulated IL-6 release from human PBMCs [1]: 0.162 nM
B9: anti-HMG1 antibody S17 (antibody, V domains shown)
VH: EVQLLESGGGLVQPGGSLRLSCAASGFTFSYYDMHWVRQAPGKGLEWVSRISPSGGYTWYADSVKGRFTISRDNSKNTLYLQMNSLRAEDTAVYYCTRGRYTSGWHEYFDPWGQGTLVTVSS
VL: DIQMTQSPSSLSASVGDRVTITCRASQSIGTYLNWYQQKPGTAPKVLIYAASSLQSGVPSRFSGSGSGTDFTLTISSLQPEDFSTYYCQQSYNTPRTFGQGTKLEIK

IC50, inhibition of HMG1 stimulated NO release from macrophages [1]: 101 µg/mL
IC50, inhibition of rHMG1 stimulated IL-6 release from human PBMCs [1]: 1.22 nM
B10: anti-HMG1 antibody E11 (antibody, V domains shown)
VH: EVQLLESGGGLVQPGGSLRLSCAASGFTFSRYQMNWVRQAPGKGLEWVSSISPSGGHTHYADSVKGRFTISRDNSKNTLYLQMNSLRAEDTAVYYCAKDGRQGKISTVDHWGQGTLVTVSS
VL: DIQMTQSPGTLSLSPGERATLSCRASQSVRSNFLAWYQQKPGQAPRLLIYGASRRASGIPDRFSGSGFGADFTLSISRLEPEDFAVYYCQQYGSSPNTFGQGSRVEIK

IC50, inhibition of rHMG1 stimulated IL-1β release from human PBMCs [1]: 0.211 µg/mL
IC50, inhibition of rHMG1 stimulated IL-6 release from human PBMCs [1]: 0.246 nM
IC50, inhibition of rHMG1 stimulated TNF-α release from human PBMCs [1]: 0.248 µg/mL
Kd [2]: 125 nM
B11: anti-HMG1 antibody G9 (antibody, V domains shown)
VH: EVQLLESGGGLVQPGGSLRLSCAASGFTFSSYDMFWVRQAPGKGLEWVSRISPSGGYTYYADSVKGRFTISRDNSKNTLYLQMNSLRAEDTAVYYCARLRYFDSRGYAFDIWGQGTMVTVSS
VL: DIQMTQSPGTLSLSPGERATLSCRASQSVRSSYLAWYQQKPGQAPRLLIYGASTRATGIPDRFSGSGSGTDFTLTISRLEPEDFAVYYCQQYGTSRWTFGQGTKVEIK
